According to patent US20190071518A1 (PIERRE FABRE MEDICAMENT, published 2019):
Residue numbers refer to the chain shown, from its start.

T1: rhADAM10 (human, UniProt O14672)
T1 construct: also called recombinant human ADAM10 (AD936, R&D Systems)
T1 sequence (recombinant ADAM10 polypeptide, looked up): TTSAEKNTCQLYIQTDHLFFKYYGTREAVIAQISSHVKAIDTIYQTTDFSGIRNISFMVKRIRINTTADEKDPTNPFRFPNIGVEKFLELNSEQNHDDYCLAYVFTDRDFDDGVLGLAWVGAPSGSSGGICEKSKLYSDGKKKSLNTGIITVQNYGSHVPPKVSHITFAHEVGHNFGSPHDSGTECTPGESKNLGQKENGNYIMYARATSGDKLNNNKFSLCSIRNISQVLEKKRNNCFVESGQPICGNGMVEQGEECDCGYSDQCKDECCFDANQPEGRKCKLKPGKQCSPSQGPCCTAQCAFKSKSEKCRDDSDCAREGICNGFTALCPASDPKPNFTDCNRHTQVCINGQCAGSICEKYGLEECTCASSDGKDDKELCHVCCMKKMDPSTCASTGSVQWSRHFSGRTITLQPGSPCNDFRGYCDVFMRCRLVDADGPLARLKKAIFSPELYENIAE

B1: enzymatically deglycosylated 1022C3 (antibody, V domains shown)
VH: QVTLKESGPGILQPSQTLSLTCSFSGFSLDTSGMGVSWIRQPSGKGLEWLAHIYWDDDKRYNPSLKSRLTISKDTSSNQVFLKITSLDTADTATYYCARRSHFGNYYYAMDYWGQGTSVTVTS
VL: DVQMTQTTSSLSASLGDRVTISCRASQDISSYLNWYQQKPDGTFKLLIFYTSRLQSGVPSKYSGSGSGTDYSLTISNLEQEDIAAYFCQQGKTLPLTFGAGTKLELK
notes: also called 1022C3 enzymatically deglycosylated
B2: murine monoclonal antibody 1022C3 (antibody, V domains shown)
VH: B1 VH with D30N
VL: B1 VL
modifications: N-glycosylated asparagine in CDR-H1
notes: Murine IgG from hybridoma I-4686, captured by anti-mouse antibody in the SPR assays; also called m1022C3; mAb 1022C3

Columns and labels:
[1] = molecular target: T2, ADAM17 on the surface of human tumour cells (A431 substrate-Nluc cells; NCI-H1299) (human, UniProt P78536 215-824); experiment: flow cytometry on the tumour cell line NCI-H1299, antibody titration
T2 construct: Endogenous ADAM17 of human tumour cell lines; also called ADAM17 at the plasma membrane; tumour cell line NCI-H1299
T2 sequence (P78536 215-824 limits assumed): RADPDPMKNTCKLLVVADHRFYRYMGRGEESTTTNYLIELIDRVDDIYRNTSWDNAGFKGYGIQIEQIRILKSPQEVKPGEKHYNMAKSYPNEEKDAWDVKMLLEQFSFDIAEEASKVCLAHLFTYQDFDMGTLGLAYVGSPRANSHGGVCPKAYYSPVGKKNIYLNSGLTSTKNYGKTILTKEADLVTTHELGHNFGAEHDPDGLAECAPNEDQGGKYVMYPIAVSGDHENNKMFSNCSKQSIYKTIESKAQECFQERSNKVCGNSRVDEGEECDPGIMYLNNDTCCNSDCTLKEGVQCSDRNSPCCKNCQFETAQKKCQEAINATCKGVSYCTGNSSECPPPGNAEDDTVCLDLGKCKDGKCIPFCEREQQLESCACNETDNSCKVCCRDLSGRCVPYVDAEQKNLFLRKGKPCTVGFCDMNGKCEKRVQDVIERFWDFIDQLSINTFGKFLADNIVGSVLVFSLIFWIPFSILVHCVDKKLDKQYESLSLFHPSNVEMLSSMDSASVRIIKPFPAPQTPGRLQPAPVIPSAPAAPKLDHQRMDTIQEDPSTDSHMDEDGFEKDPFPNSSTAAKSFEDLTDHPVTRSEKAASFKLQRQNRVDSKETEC

[2] = molecular target: T1, rhADAM10; experiment: ELISA on coated rhADAM10 (2.5 µg/ml), OD 450 nm
Experimental: The binding of 1022C3 to human ADAM17 and ADAM10 was determined by ELISA in comparison to the anti human ADAM10 antibody AB936 (R&D Systems). A ninety six well ELISA plate was coated with 100 μl/well of recombinant human (rh)ADAM17 (930-ADB, R&D Systems) at a concentration of 1 μg/ml or rhADAM10 (AD936, R&D Systems) at a concentration of 2.5 μg/ml in PBS. The coating solution was incubated overnight at 4° C. The plates were then blocked with PBS containing 0.5% gelatin (#22151, Serva Electrophoresis GmbH, Heidelberg, Germany) for 2 h at 37° C. The saturation buffer discarded by flicking plates, 100 μl of 1022C3 at a concentration of 1 μg/ml in PBS or 5 μg/ml of anti human ADAM10 polyclonal (AB936, R&D Systems) was added to the ELISA plates and incubated for 1 h at 37° C. After three washes, 100 μl horseradish peroxidase-conjugated anti human (A7164, Sigma) or anti goat (115-035-164, Jackson ImmunoResearch Europe Ltd) antibody solution diluted 1/5000 in PBS were incubated for 1 h at 37° C. After three washes, 100 μl/well TMB substrate (#UP664782, Uptima, Interchim, France) was added. After a 10 min incubation time at room temperature, the reaction was stopped using 1 M sulphuric acid and the optical density at 450 nm was measured (FIG. 7).

[3] = molecular target: ADAM17 fragments and chimeric constructs giving the positive response; experiment: SPR (Biacore X100), about 700 RU m1022C3 captured, analyte 250 nM, FC2-FC1
[4] = molecular target: murine ADAM17 M1-671 (p-c-d-mpd) human Fc fusion (murine; human) (UniProt Q9Z0F8); experiment: as above
Sequence of murine ADAM17 M1-671 (p-c-d-mpd) human Fc fusion (murine; human) (Q9Z0F8 18-671 limits assumed, form in doubt): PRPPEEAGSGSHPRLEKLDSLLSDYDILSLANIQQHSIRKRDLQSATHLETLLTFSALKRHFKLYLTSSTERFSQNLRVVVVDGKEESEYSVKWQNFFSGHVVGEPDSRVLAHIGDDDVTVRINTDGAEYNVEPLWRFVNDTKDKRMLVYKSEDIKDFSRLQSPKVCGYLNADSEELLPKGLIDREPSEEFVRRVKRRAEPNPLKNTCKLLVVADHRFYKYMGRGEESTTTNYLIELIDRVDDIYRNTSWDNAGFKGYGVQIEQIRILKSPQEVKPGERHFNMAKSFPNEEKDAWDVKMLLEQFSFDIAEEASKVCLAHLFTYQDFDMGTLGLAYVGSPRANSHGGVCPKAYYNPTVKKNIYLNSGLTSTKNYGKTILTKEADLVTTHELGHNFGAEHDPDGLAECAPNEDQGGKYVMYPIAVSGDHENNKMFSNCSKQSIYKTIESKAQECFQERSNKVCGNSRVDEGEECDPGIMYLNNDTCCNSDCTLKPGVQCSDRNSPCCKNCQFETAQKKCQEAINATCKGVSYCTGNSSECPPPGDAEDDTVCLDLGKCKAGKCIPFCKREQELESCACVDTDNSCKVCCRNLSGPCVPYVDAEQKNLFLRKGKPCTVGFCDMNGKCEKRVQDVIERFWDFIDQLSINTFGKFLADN

[5] = molecular target: murine/human chimeric ADAM17 M1-602H603-671 (p-c-d-mpd (Nter)-MPD (Cter)) human Fc fusion (murine; human) (UniProt Q9Z0F8); experiment: as above
Sequence of murine/human chimeric ADAM17 M1-602H603-671 (p-c-d-mpd (Nter)-MPD (Cter)) human Fc fusion (murine; human) (Q9Z0F8 other isoform, or with tags, fused parts or gaps mutant limits assumed, form in doubt): as the sequence (Q9Z0F8 18-671 limits assumed, form in doubt) above, with N589D, P593R counted along it

[6] = molecular target: T3, human ADAM17 H603-671 (MPD (Cter)) human Fc fusion (human, UniProt P78536 603-671); experiment: as above
T3 construct: not shown: human Fc domain at the C-terminus
T3 sequence (P78536 603-671): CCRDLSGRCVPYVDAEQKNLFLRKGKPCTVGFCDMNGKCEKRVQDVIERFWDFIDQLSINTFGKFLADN
Experimental: (§1) The experiment was performed on a Biacore X100 device. The 1022C3 is used as the ligand and the ADAM17 fragments and chimeric constructs are used as the analyte. The experiment is run at 10 μl/min at 25° C. on a rabbit anti-mouse polyclonal antibody (Mouse antibody capture kit, BR-1008-38, GE Healthcare) covalently linked to the matrix of both flowcells of a CM5 sensorchip (BR-1000-12) using the amine coupling kit (BR-1000-50, GE Healthcare), using the HBS-EP+ buffer (BR-1008-26, GE Healthcare) as the running buffer. This buffer is also used for the dilutions of the ligand and the analytes.
(§2) A solution of the 1022C3 at the concentration of 15 μg/ml is injected on the second flowcell (working surface) during 1 minute. At each cycle, one of the ADAM17 chimeric constructions (with a human Fc domain at the c-terminal positions) is injected at the concentration of 250 nM during 3 minutes on both flow cells: the reference without any 1022C3 (FC1) and the working cell with around 700 RU of m1022C3 (FC2). The registered signal corresponds to the difference between FC2 and FC1 responses.

[7] = molecular target: T4, human ADAM17 H1-474 (P-C) human Fc fusion (human, UniProt P78536 18-474); experiment: as above
T4 construct: Range as printed; not shown: human Fc domain at the C-terminus
T4 sequence (P78536 18-474): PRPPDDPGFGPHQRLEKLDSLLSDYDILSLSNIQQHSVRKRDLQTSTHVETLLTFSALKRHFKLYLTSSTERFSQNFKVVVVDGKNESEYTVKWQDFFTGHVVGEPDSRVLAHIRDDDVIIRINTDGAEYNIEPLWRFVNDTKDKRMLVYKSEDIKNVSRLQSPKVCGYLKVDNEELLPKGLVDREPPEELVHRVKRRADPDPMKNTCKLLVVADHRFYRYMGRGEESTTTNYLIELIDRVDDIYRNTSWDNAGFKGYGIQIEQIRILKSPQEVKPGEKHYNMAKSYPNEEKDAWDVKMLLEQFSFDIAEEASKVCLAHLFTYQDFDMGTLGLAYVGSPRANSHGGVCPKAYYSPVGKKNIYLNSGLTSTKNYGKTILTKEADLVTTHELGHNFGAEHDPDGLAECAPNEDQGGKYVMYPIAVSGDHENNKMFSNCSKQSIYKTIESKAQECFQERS
Experimental: as §1, §2

[8] = molecular target: T5, human ADAM17 H223-563 (C-D) human Fc fusion (human, UniProt P78536 223-563); experiment: as above
T5 construct: not shown: human Fc domain at the C-terminus
T5 sequence (P78536 223-563): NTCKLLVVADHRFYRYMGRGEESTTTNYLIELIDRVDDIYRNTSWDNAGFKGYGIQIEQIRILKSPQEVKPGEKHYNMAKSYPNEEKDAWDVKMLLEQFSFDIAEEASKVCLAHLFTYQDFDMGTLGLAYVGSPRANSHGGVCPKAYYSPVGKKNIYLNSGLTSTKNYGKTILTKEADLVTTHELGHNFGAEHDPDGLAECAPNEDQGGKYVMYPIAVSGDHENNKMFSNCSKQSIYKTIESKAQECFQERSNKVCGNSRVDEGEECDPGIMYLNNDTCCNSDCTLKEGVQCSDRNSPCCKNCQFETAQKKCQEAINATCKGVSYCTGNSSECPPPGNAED
Experimental: as §1, §2

[9] = molecular target: T6, human ADAM17 H475-563 (D) human Fc fusion (human, UniProt P78536 475-563); experiment: as above
T6 construct: not shown: human Fc domain at the C-terminus
T6 sequence (P78536 475-563): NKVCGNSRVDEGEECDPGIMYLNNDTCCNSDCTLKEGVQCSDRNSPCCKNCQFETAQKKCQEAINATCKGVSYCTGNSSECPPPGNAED
Experimental: as §1, §2

[10] = molecular target: T7, human ADAM17 H223-602 (C-D MPD (Nter)) human Fc fusion (human, UniProt P78536 223-602); experiment: as above
T7 construct: not shown: human Fc domain at the C-terminus
T7 sequence (P78536 223-602): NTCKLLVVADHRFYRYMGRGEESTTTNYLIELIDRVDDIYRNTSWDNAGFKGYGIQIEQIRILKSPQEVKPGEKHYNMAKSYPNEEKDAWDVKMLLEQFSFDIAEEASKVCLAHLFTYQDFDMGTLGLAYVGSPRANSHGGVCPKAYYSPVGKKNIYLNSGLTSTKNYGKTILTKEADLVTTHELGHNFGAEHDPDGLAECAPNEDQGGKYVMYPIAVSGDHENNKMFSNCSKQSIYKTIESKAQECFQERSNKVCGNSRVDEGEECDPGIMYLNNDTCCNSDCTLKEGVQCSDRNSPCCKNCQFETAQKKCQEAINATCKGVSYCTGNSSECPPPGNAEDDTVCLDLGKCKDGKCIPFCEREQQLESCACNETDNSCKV
Experimental: as §1, §2

[11] = molecular target: T8, human ADAM17 H475-602 (D-MPD (Nter)) human Fc fusion (human, UniProt P78536 475-602); experiment: as above
T8 construct: not shown: human Fc domain at the C-terminus
T8 sequence (P78536 475-602): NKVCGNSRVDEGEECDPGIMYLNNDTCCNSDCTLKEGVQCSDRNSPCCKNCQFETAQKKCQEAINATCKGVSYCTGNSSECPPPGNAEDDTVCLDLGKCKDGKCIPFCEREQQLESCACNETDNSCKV
Experimental: as §1, §2

[12] = molecular target: soluble ADAM17 (extracellular domain of ADAM-17) (human, UniProt P78536 215-671); experiment: SPR (Biacore), antibody captured on rabbit anti-mouse IgG, soluble ADAM17 400-12.5 nM, 1:1 Langmuir fit
Sequence of soluble ADAM17 (extracellular domain of ADAM-17) (P78536 215-671): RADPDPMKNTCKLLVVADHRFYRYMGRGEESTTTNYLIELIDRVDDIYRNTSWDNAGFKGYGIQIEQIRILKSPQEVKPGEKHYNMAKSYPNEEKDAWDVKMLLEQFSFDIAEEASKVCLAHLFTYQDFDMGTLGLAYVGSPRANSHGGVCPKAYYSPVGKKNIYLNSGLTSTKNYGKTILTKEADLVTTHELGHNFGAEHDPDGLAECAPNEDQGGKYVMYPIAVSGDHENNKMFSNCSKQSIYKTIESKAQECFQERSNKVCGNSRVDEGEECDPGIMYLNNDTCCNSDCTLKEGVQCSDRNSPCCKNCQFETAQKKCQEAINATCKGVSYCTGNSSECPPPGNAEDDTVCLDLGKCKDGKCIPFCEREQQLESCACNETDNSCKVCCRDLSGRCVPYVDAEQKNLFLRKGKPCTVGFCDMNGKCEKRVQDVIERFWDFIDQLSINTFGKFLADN
Experimental: The antibody (ligand) was bound to the second flowcell of a Biacore CM5 sensor chip (GE Healthcare) activated on both flowcells with a Rabbit anti-Mouse (RAM) IgG (H+L) covalently linked to the carboxymethyldextran matrix. Soluble ADAM17 (analyte) at concentrations ranging from 400 to 12.5 nM obtained by a two fold dilution scheme (assuming a molecular weight of 52 kDa) was injected onto the surface at a flow rate of 30 μl/min in a 120 s pulse (association) plus an extra 180 s delay for the dissociation phase measurement. The RAM surface was regenerated using NaOH 30 mM, NaCl 150 mM and 10 mM Glycine, HCl pH 1.5 buffer solutions. Curves obtained at each concentration were double referenced by first subtracting the signal from the reference FC1 surface (RAM without any mouse anti-TACE mAb) followed by subtraction of the signal obtained from a running buffer injection (Biacore HBS-EP buffer).
Data were processed using BIAevaluation 3.1 software using the 1:1 Langmuir model. The suitability of the fit was measured by the values of the Refractive Index (RI) which have to tend to zero and the κ² value.

| Binder | EC50 (read off the curve) [1] [nM] | binding result [2] | response (RU) [3] [RU] | response (RU) [4] [RU] | response (RU) [5] [RU] | response (RU) [6] [RU] | response (RU) [7] [RU] | response (RU) [8] [RU] | response (RU) [9] [RU] | response (RU) [10] [RU] | response (RU) [11] [RU] | Kd [12] [nM] | koff [12] [s⁻¹] | kon [12] [M⁻¹ s⁻¹] |
| --- | --- | --- | --- | --- | --- | --- | --- | --- | --- | --- | --- | --- | --- | --- |
| B1 | ~0.5 | – | – | – | – | – | – | – | – | – | – | – | – | – |
| B2 | ~0.5 | no binding (tested: 1 µg/ml) | 90 to 140 | < 10 | < 10 | < 10 | < 10 | < 10 | < 10 | < 10 | < 10 | 1.27 | 0.00036 | 284000 |
